According to patent publication US20040185525A1, “Process for producing peptide” (priority 2001, published 2004):

Target: T1, GPR8 (Homo sapiens, UniProt P48146)
T1 construct: expressed in transfected cells; host or cells: CHO cells (membrane fraction)
Experiment: GTPγS binding activity using a cell membrane fraction of CHO cells expressing GPR8
Format: biochemical
Settings: fraction containing cell membrane of CHO cells expressing GPR8; compared with synthetic hGPR8L; process of Example 6 in WO 01/98494
Text: FIG. 4 is a graph showing the GTPγS binding activity of hGPR8L (SEQ ID NO: 44) of Example 1 to 3 toward CHO cells expressing GPR8. The horizontal axis indicates the concentration of hGPR8L while the vertical axis indicates the GTPyS binding activity. The solid points (-•-) indicate the results obtained for a synthetic hGPR8L (SEQ ID NO: 44) while the open points (-∘-) indicate the results obtained for hGPR8L (SEQ ID NO: 44) produced by the method of the present invention (tandem repeat technique).
Using a fraction containing cell membrane of CHO cells expressing GPR8, the GTPγS binding activity of the hGPR8L obtained above was determined by the same process as described in Example 6 in WO 01/98494.

T1 sequence (P48146 whole entry): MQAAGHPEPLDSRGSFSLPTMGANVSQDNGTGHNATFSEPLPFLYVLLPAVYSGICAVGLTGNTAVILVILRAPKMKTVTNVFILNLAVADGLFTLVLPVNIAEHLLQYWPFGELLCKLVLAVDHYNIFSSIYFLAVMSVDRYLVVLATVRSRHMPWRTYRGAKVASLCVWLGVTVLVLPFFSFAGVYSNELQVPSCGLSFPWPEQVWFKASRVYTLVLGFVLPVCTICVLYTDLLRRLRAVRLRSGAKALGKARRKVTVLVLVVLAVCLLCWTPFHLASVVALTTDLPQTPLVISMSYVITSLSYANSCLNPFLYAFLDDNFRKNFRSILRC

## hGPR8L: 23-residue ligand polypeptide for human GPR8 (SEQ ID NO: 44), produced by the tandem repeat technique in E. coli (WYKHVASPRYHTVGRAAGLLMGL; Human)
  GTPγS binding activity: equivalent to that of the artificially synthesized protein
